Paper doi:10.1101/2022.08.19.504532 (bioRxiv, 2022)
Several values for one entry are separate records, joined by “and”; a condition that tells them apart may be missing. Equal values may be shown once.

Assays:
[1] = target: FLAG-BIRC6 (full-length baculoviral IAP repeat-containing protein 6) (human) (UniProt Q9NR09); experiment: cryo-EM structure; details: remark: other sources report otherwise
[2] = target: 3xFLAG-BIRC6 (full-length, wild type) (human) (UniProt Q9NR09); experiment: FRET or BRET
[3] = target: 3xFLAG-BIRC6 ΔHelix (aa1616-1666 removed) (human, UniProt Q9NR09 1-4857, ΔHelix, aa1616-1666 removed); experiment: FRET or BRET
[4] = target: 3xFLAG-BIRC6 BIRmut (C328S/C331S) (human, UniProt Q9NR09 1-4857, C328S | C331S); experiment: FRET or BRET
[5] = target: 3xFLAG-BIRC6 (full-length, wild type) (human, UniProt Q9NR09 1-4857); experiment: FRET or BRET
[6] = target: FLAG-BIRC6 (full-length baculoviral IAP repeat-containing protein 6) (human, UniProt Q9NR09 1-4857); experiment: cryo-EM structure
[7] = target: the molecule itself; experiment: cryo-EM structure

FLAG-BIRC6 (full-length baculoviral IAP repeat-containing protein 6), Q9NR09 1-4857
stoichiometry N [1]: 2

BODIPY-labeled caspase-7 (from UniProt P55210 1-303) (enzyme)
Kd [2]: 4 nM

B1: BODIPY-labeled Smac-Cys (natural protein)
chain: AVPIAQKSEPHSLSSEALMRRAVSLVTDSTSTFLSQTTYALIEAITEYTKAVYTLTSLYRQYTSLLGKMNSEEEDEVWQVIIGARAEMTSKHQEYLKLETTWMTAVGLSEMAAEAAYQTGADQASITARNHIQLVKLQVEEVHQLSRKAETKLAEAQIEELRQKTQEEGEERAESEQEAYLREDC
modifications: BODIPY FL Maleimide on the introduced cysteine (degree of labeling 0.48)
Kd [3]: 30 ± 5 nM
Kd [4]: 26 ± 2 nM
Kd [5]: < 2 nM and 2 nM
binding result [5]: binds

B2: Smac-His9 (mature Smac without the N-terminal mitochondrial targeting sequence) (natural protein)
chain: AVPIAQKSEPHSLSSEALMRRAVSLVTDSTSTFLSQTTYALIEAITEYTKAVYTLTSLYRQYTSLLGKMNSEEEDEVWQVIIGARAEMTSKHQEYLKLETTWMTAVGLSEMAAEAAYQTGADQASITARNHIQLVKLQVEEVHQLSRKAETKLAEAQIEELRQKTQEEGEERAESEQEAYLRED
binding result [6]: binds
stoichiometry N [7]: 2
